Experimental data published in PMC3220798 (2011).

Assays:
PvdQ [1] = molecular target: T1, PvdQ (Pseudomonas aeruginosa, UniProt Q9I194); assay: co-crystal structure; assay type: biochemical
[2] = system: CCCCCCCCCCCCCC(=O)Oc1ccc([N+](=O)[O-])cc1; assay: purified protein; details: myristate bound to Serβ[…]
[3] = system: CCCCCCCCCCCC(=O)Oc1ccc([N+](=O)[O-])cc1; assay: purified protein
[4] = system: CCCCCCCCCCCC(=O)Oc1ccc2c(C)cc(=O)oc2c1; assay: purified protein
PvdQ [5] = molecular target: T1, PvdQ; assay: crystal structure, co-purified ligand; assay type: binding
PvdL module 1 (PvdLM1) = PvdL module 1 (PvdLM1) (Pseudomonas aeruginosa, UniProt Q9I157); assay: ATP/[…]-pyrophosphate exchange assay; assay type: biochemical

T1 sequence (Q9I194 24-193): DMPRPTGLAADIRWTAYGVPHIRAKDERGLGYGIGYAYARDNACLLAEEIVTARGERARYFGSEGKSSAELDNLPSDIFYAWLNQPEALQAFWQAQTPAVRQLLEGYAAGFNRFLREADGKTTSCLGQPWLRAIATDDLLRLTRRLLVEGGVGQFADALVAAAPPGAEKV
T1 sequence (Q9I194 217-762): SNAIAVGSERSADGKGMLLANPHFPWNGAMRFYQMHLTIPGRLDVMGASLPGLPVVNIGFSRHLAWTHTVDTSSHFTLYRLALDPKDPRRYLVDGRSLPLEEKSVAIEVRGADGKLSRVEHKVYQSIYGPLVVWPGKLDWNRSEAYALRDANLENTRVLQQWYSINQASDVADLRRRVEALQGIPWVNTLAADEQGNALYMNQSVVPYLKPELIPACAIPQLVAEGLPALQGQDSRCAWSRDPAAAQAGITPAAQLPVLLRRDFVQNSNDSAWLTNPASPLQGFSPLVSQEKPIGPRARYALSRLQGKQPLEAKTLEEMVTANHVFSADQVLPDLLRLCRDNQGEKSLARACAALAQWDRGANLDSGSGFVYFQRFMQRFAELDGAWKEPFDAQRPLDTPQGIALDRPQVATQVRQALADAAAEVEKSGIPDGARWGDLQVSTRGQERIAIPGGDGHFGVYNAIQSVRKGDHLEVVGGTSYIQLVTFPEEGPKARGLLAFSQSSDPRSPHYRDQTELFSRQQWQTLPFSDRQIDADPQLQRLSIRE

Work on `O=c1onc2n1-c1cc(Br)ccc1OC2` [compound 922, 4H-8-Bromo-1,2,4-oxadiazolo[3,4-d]benz[b][1,4]oxazin-1-one] yielded an IC50 (PvdQ [1]) of 145 µM.

With PvdQ (Pseudomonas aeruginosa PAO1) the Km [2] was 1400 µM, the kcat [2] was 0.74 s⁻¹ and the kcat/Km [2] was 521 M⁻¹ s⁻¹. It also gave a Km [3] of 11400 µM, a kcat [3] of 1.99 s⁻¹ and a kcat/Km [3] of 175 M⁻¹ s⁻¹. For the same molecule, the Km [4] was 750 µM, the kcat [4] was 1.24 s⁻¹ and the kcat/Km [4] was 1660 M⁻¹ s⁻¹.

With `CCCCCCCC(=O)O` [octanoate] the “crystal structure, co-purified ligand” value (PvdQ [5]) was “co-purifying octanoate molecule bound non-covalently in the fatty acid binding pocket”.

`CCCCCCCCCCCCCC(=O)O` [C14, myristate] was tested, and the “CPM (×10^3) ^a” value (PvdL module 1 (PvdLM1)) was 160.0 ± 14.1 CPM (×10^3).
